Experimental data from patent US20240270846A1 (published 2024).
Positions count from the first letter of the chain named. Names and notes keep the numbering of the source.

B1: CE115HA000 D101P one-arm antibody (antibody, human IgG1, kappa, L234A L235A, N297A, name in Kabat numbering)
heavy: QVQLVESGGGVVQPGRSLRLSCAASGFTFSNAWMHWVRQAPGKGLEWVAQIKAKSNNYATYYAESVKGRFTISRDDSKNSLYLQMNSLKTEDTAVYYCRYVHYGAYYGVPAWGQGTTVTVSSASTKGPSVFPLAPSSKSTSGGTAALGCLVKDYFPEPVTVSWNSGALTSGVHTFPAVLQSSGLYSLSSVVTVPSSSLGTQTYICNVNHKPSNTKVDKKVEPKSCDKTHTCPPCPAPEAAGGPSVFLFPPKPKDTLMISRTPEVTCVVVDVSHEDPEVKFNWYVDGVEVHNAKTKPREEQYASTYRVVSVLTVLHQDWLNGKEYKCKVSNKALPAPIEKTISKAKGQPREPQVYTLPPSRCELTKNQVSLSCAVKGFYPSDIAVEWESNGQPENNYKTTPPVLDSDGSFFLVSKLTVDKSRWQQGNVFSCSVMHEALHNHYTQKSLSLSPDYKDDDDK
chain: EPKSSDKTHTCPPCPAPELLGGPSVFLFPPKPKDTLMISRTPEVTCVVVDVSHEDPEVKFNWYVDGVEVHNAKTKPREEQYNSTYRVVSVLTVLHQDWLNGKEYKCKVSNKALPAPIEKTISKAKGQPREPQVCTLPPSRDELTKNQVSLWCLVKGFYPSDIAVEWESNGQPENNYKTTPPVLDSDGSFFLYSKLTVDKSRWQQGNVFSCSVMHEALHNRYTQKSLSLSP
light: DIVMTQSPLSLPVTPGEPASISCRSSQSLVHSNRNTYLHWYQQKPGQAPRLLIYKVSNRFSGVPDRFSGSGSGTDFTLKISRVEAEDVGVYYCGQGTQVPYTFGQGTKLEIKRTVAAPSVFIFPPSDEQLKSGTASVVCLLNNFYPREAKVQWKVDNALQSGNSQESVTEQDSKDSTYSLSSTLTLSKADYEKHKVYACEVTHQGLSSPVTKSFNRGEC
notes: one-arm antibody
B2: CE115HA000 G98H one-arm antibody (antibody, human IgG1, kappa, L234A L235A, N297A, name in Kabat numbering)
heavy: B1 heavy with G104H, P110D
chain: B1 chain
light: B1 light
notes: one-arm antibody
B3: CE115HA000 G100bE one-arm antibody (antibody, human IgG1, kappa, L234A L235A, N297A, name in Kabat numbering)
heavy: B1 heavy with G108E, P110D
chain: B1 chain
light: B1 light
notes: one-arm antibody
B4: CE115HA000 H96R one-arm antibody (antibody, human IgG1, kappa, L234A L235A, N297A, name in Kabat numbering)
heavy: B1 heavy with H102R, P110D
chain: B1 chain
light: B1 light
notes: one-arm antibody
B5: CE115HA000 D101Q one-arm antibody (antibody, human IgG1, kappa, L234A L235A, N297A, name in Kabat numbering)
heavy: B1 heavy with P110Q
chain: B1 chain
light: B1 light
notes: one-arm antibody
B6: CE115HA000 H96Q one-arm antibody (antibody, human IgG1, kappa, L234A L235A, N297A, name in Kabat numbering)
heavy: B1 heavy with H102Q, P110D
chain: B1 chain
light: B1 light
notes: one-arm antibody
B7: CE115HA000 H96K one-arm antibody (antibody, human IgG1, kappa, L234A L235A, N297A, name in Kabat numbering)
heavy: B1 heavy with H102K, P110D
chain: B1 chain
light: B1 light
notes: one-arm antibody
B8: CE115HA000 G100bF one-arm antibody (antibody, human IgG1, kappa, L234A L235A, N297A, name in Kabat numbering)
heavy: B1 heavy with G108F, P110D
chain: B1 chain
light: B1 light
notes: one-arm antibody
B9: CE115HA000 H96S one-arm antibody (antibody, human IgG1, kappa, L234A L235A, N297A, name in Kabat numbering)
heavy: B1 heavy with H102S, P110D
chain: B1 chain
light: B1 light
notes: one-arm antibody
B10: CE115HA000 G65E one-arm antibody (antibody, human IgG1, kappa, L234A L235A, N297A, name in Kabat numbering)
heavy: B1 heavy with G68E, P110D
chain: B1 chain
light: B1 light
notes: one-arm antibody
B11: CE115HA000 G98K one-arm antibody (antibody, human IgG1, kappa, L234A L235A, N297A, name in Kabat numbering)
heavy: B1 heavy with G104K, P110D
chain: B1 chain
light: B1 light
notes: one-arm antibody
B12: CE115HA000 G98R one-arm antibody (antibody, human IgG1, kappa, L234A L235A, N297A, name in Kabat numbering)
heavy: B1 heavy with G104R, P110D
chain: B1 chain
light: B1 light
notes: one-arm antibody
B13: CE115HA000 H96G one-arm antibody (antibody, human IgG1, kappa, L234A L235A, N297A, name in Kabat numbering)
heavy: B1 heavy with H102G, P110D
chain: B1 chain
light: B1 light
notes: one-arm antibody
B14: CE115HA000 D101T one-arm antibody (antibody, human IgG1, kappa, L234A L235A, N297A, name in Kabat numbering)
heavy: B1 heavy with P110T
chain: B1 chain
light: B1 light
notes: one-arm antibody
B15: CE115HA000 G65D one-arm antibody (antibody, human IgG1, kappa, L234A L235A, N297A, name in Kabat numbering)
heavy: B1 heavy with G68D, P110D
chain: B1 chain
light: B1 light
notes: one-arm antibody
B16: CE115HA000 G100bD one-arm antibody (antibody, human IgG1, kappa, L234A L235A, N297A, name in Kabat numbering)
heavy: B1 heavy with G108D, P110D
chain: B1 chain
light: B1 light
notes: one-arm antibody
B17: CE115HA000 D101R one-arm antibody (antibody, human IgG1, kappa, L234A L235A, N297A, name in Kabat numbering)
heavy: B1 heavy with P110R
chain: B1 chain
light: B1 light
notes: one-arm antibody
B18: CE115HA000 D101S one-arm antibody (antibody, human IgG1, kappa, L234A L235A, N297A, name in Kabat numbering)
heavy: B1 heavy with P110S
chain: B1 chain
light: B1 light
notes: one-arm antibody
B19: CE115HA000 G100bY one-arm antibody (antibody, human IgG1, kappa, L234A L235A, N297A, name in Kabat numbering)
heavy: B1 heavy with G108Y, P110D
chain: B1 chain
light: B1 light
notes: one-arm antibody
B20: CE115HA000 D101V one-arm antibody (antibody, human IgG1, kappa, L234A L235A, N297A, name in Kabat numbering)
heavy: B1 heavy with P110V
chain: B1 chain
light: B1 light
notes: one-arm antibody
B21: CE115HA000 G98Q one-arm antibody (antibody, human IgG1, kappa, L234A L235A, N297A, name in Kabat numbering)
heavy: B1 heavy with G104Q, P110D
chain: B1 chain
light: B1 light
notes: one-arm antibody
B22: CE115HA000 G98Y one-arm antibody (antibody, human IgG1, kappa, L234A L235A, N297A, name in Kabat numbering)
heavy: B1 heavy with G104Y, P110D
chain: B1 chain
light: B1 light
notes: one-arm antibody
B23: CE115HA000 G98P one-arm antibody (antibody, human IgG1, kappa, L234A L235A, N297A, name in Kabat numbering)
heavy: B1 heavy with G104P, P110D
chain: B1 chain
light: B1 light
notes: one-arm antibody
B24: CE115HA000 G98D one-arm antibody (antibody, human IgG1, kappa, L234A L235A, N297A, name in Kabat numbering)
heavy: B1 heavy with G104D, P110D
chain: B1 chain
light: B1 light
notes: one-arm antibody
B25: CE115HA000 H96L one-arm antibody (antibody, human IgG1, kappa, L234A L235A, N297A, name in Kabat numbering)
heavy: B1 heavy with H102L, P110D
chain: B1 chain
light: B1 light
notes: one-arm antibody
B26: CE115HA000 G98A one-arm antibody (antibody, human IgG1, kappa, L234A L235A, N297A, name in Kabat numbering)
heavy: B1 heavy with G104A, P110D
chain: B1 chain
light: B1 light
notes: one-arm antibody
B27: CE115HA000 G100bS one-arm antibody (antibody, human IgG1, kappa, L234A L235A, N297A, name in Kabat numbering)
heavy: B1 heavy with G108S, P110D
chain: B1 chain
light: B1 light
notes: one-arm antibody
B28: CE115HA000 G98S one-arm antibody (antibody, human IgG1, kappa, L234A L235A, N297A, name in Kabat numbering)
heavy: B1 heavy with G104S, P110D
chain: B1 chain
light: B1 light
notes: one-arm antibody
B29: CE115HA000 D101Y one-arm antibody (antibody, human IgG1, kappa, L234A L235A, N297A, name in Kabat numbering)
heavy: B1 heavy with P110Y
chain: B1 chain
light: B1 light
notes: one-arm antibody
B30: CE115HA000 G98T one-arm antibody (antibody, human IgG1, kappa, L234A L235A, N297A, name in Kabat numbering)
heavy: B1 heavy with G104T, P110D
chain: B1 chain
light: B1 light
notes: one-arm antibody
B31: CE115HA000 G100bL one-arm antibody (antibody, human IgG1, kappa, L234A L235A, N297A, name in Kabat numbering)
heavy: B1 heavy with G108L, P110D
chain: B1 chain
light: B1 light
notes: one-arm antibody

molecular target: T1, CD3 epsilon homodimer protein (UniProt P07766 23-126); assay: SPR (Biacore T200), CD3 epsilon homodimer on CM4 chip, one-arm antibody as analyte; ratio to unaltered CE115HA000;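 note: surface plasmon resonance run at 25 °C with HBS-EP+ as running buffer, CD3 epsilon homodimer attached by amine coupling, antibody passed over as analyte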
T1 construct: Construct of the homodimer protein is not described; also called CD3 (CD3 epsilon)
T1 sequence (P07766 23-126): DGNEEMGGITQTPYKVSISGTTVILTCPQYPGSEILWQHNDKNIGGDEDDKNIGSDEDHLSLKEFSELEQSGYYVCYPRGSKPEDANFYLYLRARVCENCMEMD

| Binder | KD ratio (KD value of CE115HA000/KD value of the altered form) |
| --- | --- |
| B1 | 43.4 |
| B2 | 1.14 |
| B3 | 7.29 |
| B4 | 1.59 |
| B5 | 3.55 |
| B6 | 1.36 |
| B7 | 1.56 |
| B8 | 4.37 |
| B9 | 1.15 |
| B10 | 0.61 |
| B11 | 4.85 |
| B12 | 4.69 |
| B13 | 0.8 |
| B14 | 0.62 |
| B15 | 0.61 |
| B16 | 6.25 |

| Binder | KD ratio (KD value of CE115HA000/KD value of the altered form) |
| --- | --- |
| B17 | 5.66 |
| B18 | 0.91 |
| B19 | 51.4 |
| B20 | 1.18 |
| B21 | 1.04 |
| B22 | 2.75 |
| B23 | 0.88 |
| B24 | 2.36 |
| B25 | 3.14 |
| B26 | 0.98 |
| B27 | 1.25 |
| B28 | 0.98 |
| B29 | 0.97 |
| B30 | 0.93 |
| B31 | 5.84 |
